Data as given in publication PMC4221194.

How the values were obtained:
Assay in all cases: SEC; Superdex 75 10/300 GL column, after Ni-NTA purification; absorbance at 280 nm; proteins eluted at about 80 kDa
[1] = molecular target: wild-type Angiogenin-GST (human Angiogenin fused to GST, with a C-terminal hexa-histidine tag) (human) (UniProt P03950)
[2] = molecular target: L35P-Angiogenin-GST (human Angiogenin L35P fused to GST, with a C-terminal hexa-histidine tag) (human) (UniProt P03950)
[3] = molecular target: D22G-Angiogenin-GST (human Angiogenin D22G fused to GST, with a C-terminal hexa-histidine tag) (human) (UniProt P03950)

Substance: wild-type Angiogenin-GST (human Angiogenin fused to GST, with a C-terminal hexa-histidine tag) (from UniProt P03950 25-147) (enzyme)
- stoichiometry N [1]: 2

Substance: L35P-Angiogenin-GST (human Angiogenin L35P fused to GST, with a C-terminal hexa-histidine tag) (from UniProt P03950 25-147) (enzyme)
- stoichiometry N [2]: 2

Substance: D22G-Angiogenin-GST (human Angiogenin D22G fused to GST, with a C-terminal hexa-histidine tag) (from UniProt P03950 25-147) (enzyme)
- stoichiometry N [3]: 2
